Test results from the supplement of paper PMC12764529.
± gives the half width of the 95% confidence interval.

Tests used:
[1] = folding stability dG unfold from chymotrypsin proteolysis; higher = more stable
Procedure, shortened: (§1)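 Digests were run with trypsin and chymotrypsin at 11 concentrations in threefold dilutions, plus a no-protease condition, on designed mini-proteins in a PA-tagged cDNA display construct. The mini-proteins were under 80 residues, had no cysteine, and were kept only when AlphaFold2 dimer inter-PAE was above 15. After sequencing, Bayesian fitting of the counts gave K50, from which unfolding free energy was derived against a sequence-predicted unfolded-state K50 and a shared folded-state K50, per protease or combined.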

[2] = folding stability dG unfold (combined trypsin and chymotrypsin); higher = more stable
Procedure, shortened: as §1

Sequence | folding stability dG unfold [1] | folding stability dG unfold [2]
SAGGSMKLKPGDEIWVPENMPEDAIKDEIKEWADNFNIKGIDDIEPPKPGWHRIKVEWPNGRKLTISAGGSA [r2_168_TrROS] | -0.147 ± 0.17 kcal/mol | -0.748 ± 0.3 kcal/mol
SAGGSSAEELAEALKKKLEELGLEIKELELKVKKVKVEEKPKPKVELKEEKVEVKEKKFYSEEEKKSAGGSA [r2_384_TrROS_Hall] | -0.485 ± 0.69 kcal/mol | < -1 kcal/mol
SAGGSSLPPEYTVTEVEREFTTPEDVAEARAAAEAAAAAGAEVLEVTVERPEDGSYRVRFTLATPRSAGGSA [r2_350_JUSTAS] | 0.611 ± 0.22 kcal/mol | 0.0151 ± 0.24 kcal/mol
SAGGSSRTISIPVSPSLSPEEVAELIKKEVKKMGEDKEVKVLSVDPSGRIDVLVGDEPITVDASLPSAGGSA [r2_102_JUSTAS] | 0.623 ± 0.1 kcal/mol | 0.235 ± 0.2 kcal/mol
SAGGSSYIVKATPAGGPSFEAEATLTSVSSEGDNFTANVEVTFDGKPVTLTFDGDKVGPVVIEPPESAGGSA [r2_319_TrMRF] | 0.558 ± 0.15 kcal/mol | -0.0521 ± 0.17 kcal/mol
SAGGSTAEELADQIHKKFMEQGYKITDVDITYNPNNWVMVKATIRNPDDPNQRMKMNIMIPKDEIKSAGGSA [r2_384_TrROS] | 0.649 ± 0.32 kcal/mol | 0.239 ± 0.29 kcal/mol
SAGGSYMVKVEWRNNNKEMEMTHPFDDPEDALNFAHDLLPNGMELDIEVFDPKEGEPIGTVPFRVDSAGGSA [r2_390_TrROS] | -0.536 ± 0.26 kcal/mol | < -1 kcal/mol
SAGGTIKPGQPVRIRAEWYNGNKEWTHTHEFPLPENQTLDDVADEILEHLPPEHNKNFKVRIEIEPVSAGGS [r16_321_TrROS] | 0.904 ± 0.1 kcal/mol | 0.373 ± 0.11 kcal/mol
SAGGWVKDPDGQTVEMKVLDPGMNKDNAKPFADNIAEQLHRQHGMNPNNVKVKVETDPENGTVRVKVKSAGG [r13_913_TrROS] | -0.385 ± 0.39 kcal/mol | < -1 kcal/mol
SAGKMTIEIVVEVKPGMTEEELKEKLEELVKKLKEEFPELKNLEIKIVEVKVERLEDGTLRVTVKIEVKSAG [r5_985_TrROS_Hall] | 3.08 ± 0.24 kcal/mol | > 6 kcal/mol
SAGKVLEELGYELVEEKEEEIGDVKIITATFPVGESPVVVTAEVTEKKEDDKPIVKVKVTVTPLPPEAPSAG [r5_516_JUSTAS] | 0.977 ± 0.17 kcal/mol | 0.58 ± 0.51 kcal/mol
SAGMKIKVTIERGGDRAERILPPEEAKALLDKYPEDGEIPLDLEGEEVTVKIEKTPPALPTEEAIKELKSAG [r5_669_JUSTAS] | 0.11 ± 0.4 kcal/mol | < -1 kcal/mol
SAGMKVTVSPASLVFDPATGRLLRPVLVTVEDTGGGGKTPAEEQAAAAEATRRALAAELAPRTGSALDLSAG [r5_333_JUSTAS] | 0.912 ± 0.069 kcal/mol | 0.37 ± 0.091 kcal/mol
SAGMPADTFIELNITITVPSEEYEADPAAVKAAADAAIAAAKAAGLPVDAATFTFERVPPVDPNNPRVGSAG [r5_979_JUSTAS] | -0.605 ± 0.2 kcal/mol | < -1 kcal/mol
SAGMTPEDLKNGKPVKVPIPIPIRDPDGKPWAEIPIKGPMPVKDIMEVIETIREIARELKIPPSDGDKNSAG [r5_606_TrROS] | -0.743 ± 0.53 kcal/mol | < -1 kcal/mol
SAGMVIELPNATITIETVPDPSSSNKVYRVTVTAHLPDGSRPVVVLTFPENVPIEEILKEAIKAAEELLSAG [r5_704_JUSTAS] | 5.93 ± 0.14 kcal/mol | > 6 kcal/mol
SAGPAVAVAPIPALEARPDLKDALVRVVVSPLPDGRVAVDVRPVFVPKPVITPEEARELEELAEKLAASAGG [r19_313_TrMRF] | 0.297 ± 0.027 kcal/mol | -0.224 ± 0.13 kcal/mol
SAGPEIKIEPRSYDPKKGIFTYSAYVLDYKDGKKEREIEVGTWRYYGPDGTVEPISEEDILQKAKDLLSSAG [r5_909_TrMRF] | 0.543 ± 0.32 kcal/mol | 0.371 ± 0.18 kcal/mol
SAGPITPEEIQEKVTKAMEEEGMDNVNVDVQRDEDNGRITIQVEVQMPPGNKEKAQRIQDAIQDELGIKSAG [r5_9_TrROS] | 0.89 ± 0.062 kcal/mol | 0.277 ± 0.099 kcal/mol

Sequence | folding stability dG unfold [1] | folding stability dG unfold [2]
SAGPWKIEVEQYDPNGKKEEIEDPEDLLDLAKDLPPNRMVHIKIPNGRETIMFQNPDGNVFVLKIERPESAG [r5_506_TrROS] | -0.0396 ± 0.33 kcal/mol | -0.374 ± 0.34 kcal/mol
SAGRIKSIQINPYENPNGQYPITVRVRWPGNGKERDRNFPMSPNDARNQAKELAKELPGKPLEIDEITSAGG [r19_317_TrROS] | -0.545 ± 0.15 kcal/mol | -0.943 ± 0.19 kcal/mol
SAGRRKVEIPIPFDDPGQAMSADELADELRELGLKPGHEPKVEPHPDGYMRVKFEVPGPEVTIHIPMWDSAG [r5_144_TrROS] | 0.747 ± 0.16 kcal/mol | 0.183 ± 0.098 kcal/mol
SAGRRSLVLLAPVDDPARAPTAEELARELLALGGTPATRPRAEPLEDDTLRVTFEAPGVDVTVLVDLRASAG [r5_144_TrMRF] | 0.638 ± 0.12 kcal/mol | 0.138 ± 0.11 kcal/mol
SAGSAVVRDFDFEVPPGYGVLDVTVTEGPGPPVWEGTVTFQAGGAPETLTVTIPVDPATGARSVAMTAGSAG [r5_136_JUSTAS] | 0.267 ± 0.13 kcal/mol | -0.235 ± 0.25 kcal/mol
SAGSVSLPPGAVLTEERKLPDGSLVRTTTTVSPVPELPVDRIETTTEFYAPGGEKIGTETSSSLRPPGESAG [r5_787_JUSTAS] | -0.0977 ± 0.13 kcal/mol | -0.493 ± 0.35 kcal/mol
SAGSVTRSFPSGSSVSAETDPETNTITISTSPSSGQLVAQLPTAGEKVVPVSDRDLEEAAKEAAEALLSSAG [r5_447_JUSTAS] | -0.134 ± 0.12 kcal/mol | -0.854 ± 0.32 kcal/mol
SAGVKIERDPNPGWMEITYPIDNKPIQIEIPMDPNNGQMKVKVEYGDGKPKEYTIPGGSIEEIIEDLFSAGG [r19_159_TrROS] | 0.111 ± 0.23 kcal/mol | < -1 kcal/mol
SAGVRYLVATGEDGATVVVPVPAETEEEAEEKAEELARELAERFPGARFVPVPVEEPELPPVEALPGVESAG [r5_950_TrMRF] | 0.429 ± 0.11 kcal/mol | -0.46 ± 0.57 kcal/mol
SAGWDLKIEPEPNPDNGMRMINIEYEDPDGDGPYTVSIMYHNGKIKAVEVQDPNTGEPELTPEALEELFSAG [r5_872_TrROS] | 0.14 ± 0.26 kcal/mol | -0.305 ± 0.49 kcal/mol
SAIKIEDDPNGYQQIEIPNPENGRKIVITMMYSPDGQFQMSLQRMDPNGKKKTITAPMPVEEAIDELKDSAG [r14_179_TrROS] | 0.698 ± 0.33 kcal/mol | 0.0571 ± 0.6 kcal/mol
SALDPAAGTVTATVTRPVTLPDGRTVPVTRPVRVPVTYDVVVRDPETGEVVRAADYDPETGRLRDASAASAG [r14_122_TrMRF] | 0.548 ± 0.37 kcal/mol | < -1 kcal/mol
SAMDLSTLPPSTSVTPSTSSLPGNLSRSTYTLTTRDPETGALTVTTVTTYTDPSSSSTTVTPSTTLLPASAG [r14_307_JUSTAS] | 0.34 ± 0.22 kcal/mol | 0.00104 ± 0.15 kcal/mol
SAMKIEIEVPSLEQVKKLEKLLPDKYKISEVKVDPETKKVYVIIELDPSLSPEEVAKLEKEFEEVVKEESAG [r14_306_TrMRF] | 5.03 ± 0.28 kcal/mol | 5.14 ± 0.58 kcal/mol
SAMNVTLTKHPDGTYTVGATLPGYSPVSTQTIPSSVPSYTVTYRTPDEVLKVTYKDSGLTPERVPISRLSAG [r14_403_JUSTAS] | 0.395 ± 0.053 kcal/mol | -0.0343 ± 0.044 kcal/mol
SAPVRTVTLNVPVERDAAGNLVPVSPEEIVAELEKEGYPREEIEVKNVTETTIPVTIEVDLVNGKMRVLGSA [r9_225_JUSTAS] | -0.326 ± 0.61 kcal/mol | < -1 kcal/mol
SAYYKIRWNNGREIELKDMPIEDLEKYFPGGPVEIEPVPPVPVVRIESWEQANDLAEQNPPNHTIIVMDSAG [r14_445_TrROS] | -0.476 ± 0.83 kcal/mol | -0.634 ± 0.56 kcal/mol
SGMDVFVASDPGPSYLRAEARLPGGESRVLTSGPPEEARALVERLAAEEDPAMAVRRVEEVPPGELPPELSA [r9_137_JUSTAS] | -0.38 ± 0.18 kcal/mol | < -1 kcal/mol
